These results are taken from US20240417440A1 (published 2024).

Test [1] deals with T1, NY-ESO-1 peptide on HLA-A*02:01 (human).
T1 peptide: FTVSGNILTI
As to the kind of experiment: cytokine release.

For test [2], the target named is T2, NY-ESO-1 peptide on HLA-A*02:01 (human).
T2 peptide: RLLEFYLAM
Nature of the test: cytokine release.

Test [3] concerns the target T3, NY-ESO-1/LAGE-1 peptide on HLA-A*02:01 (human).
T3 peptide: SLLMWITQC
Nature of the test: multimer staining.

B1: T11.8-10-17 (TCR, V domains shown)
Valpha: QKEVEQNSGPLSVPEGAIASLNCTYSDRGSQSFFWYRQYSGKSPELIMFIYSNGDKEDGRFTAQLNKASQYVSLLIRDSQPSDSATYLCAADDKIIFGKGTRLHILP
Vbeta: DAGVIQSPRHEVTEMGQEVTLRCKPISGHDYLFWYRQTMMRGLELLIYFNNNVPIDDSGMPEDRFSAKMPNASFSTLKIQPSEPRDSAVYFCASSRGGSGYTFGSGTRLTVV
In the case of B1, the values for the binding result in test [1], in test [2] and in test [3] were “no recognition”, “no recognition” and “recognises”, respectively.
